Laboratory results published in publication PMC10397247.

Tests used:
4H3189-bA = molecular target: T1, 4H3189-bA; assay: two-hybrid library CCNG1;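 also: natural log of median RNA to DNA barcode read ratio; higher means stronger binding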
T1 chain: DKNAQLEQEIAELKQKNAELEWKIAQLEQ

4H331-bA = molecular target: T2, 4H331-bA; assay: two-hybrid library CCNG1;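 also: natural log of median RNA to DNA barcode read ratio; higher means stronger binding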
T2 chain: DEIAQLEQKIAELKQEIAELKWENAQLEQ

4H3606-bA = molecular target: T3, 4H3606-bA; assay: two-hybrid library CCNG1;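 also: natural log of median RNA to DNA barcode read ratio; higher means stronger binding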
T3 chain: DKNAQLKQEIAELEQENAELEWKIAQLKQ

4H370-bA = molecular target: T4, 4H370-bA; assay: two-hybrid library CCNG1;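 also: natural log of median RNA to DNA barcode read ratio; higher means stronger binding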
T4 chain: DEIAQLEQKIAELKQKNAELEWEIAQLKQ

4H3782-bA = molecular target: T5, 4H3782-bA; assay: two-hybrid library CCNG1;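 also: natural log of median RNA to DNA barcode read ratio; higher means stronger binding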
T5 chain: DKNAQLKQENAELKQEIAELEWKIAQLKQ

4H3843-bA = molecular target: T6, 4H3843-bA; assay: two-hybrid library CCNG1;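 also: natural log of median RNA to DNA barcode read ratio; higher means stronger binding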
T6 chain: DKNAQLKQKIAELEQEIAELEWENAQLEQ

4H4001-bA = molecular target: T7, 4H4001-bA; assay: two-hybrid library CCNG1
T7 chain: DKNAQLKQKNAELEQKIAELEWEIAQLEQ

4H462-bA = molecular target: T8, 4H462-bA; assay: two-hybrid library CCNG1
T8 chain: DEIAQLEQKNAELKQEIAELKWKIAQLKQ

4H568-bA = molecular target: T9, 4H568-bA; assay: two-hybrid library CCNG1
T9 chain: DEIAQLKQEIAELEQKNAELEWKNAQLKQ

4H607-bA = molecular target: T10, 4H607-bA; assay: two-hybrid library CCNG1
T10 chain: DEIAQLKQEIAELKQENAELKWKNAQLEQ

4H687-bA = molecular target: T11, 4H687-bA; assay: two-hybrid library CCNG1
T11 chain: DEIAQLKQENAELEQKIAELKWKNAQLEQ

4H72-bA = molecular target: T12, 4H72-bA; assay: two-hybrid library CCNG1
T12 chain: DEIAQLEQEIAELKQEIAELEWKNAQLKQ

4H797-bA = molecular target: T13, 4H797-bA; assay: two-hybrid library CCNG1
T13 chain: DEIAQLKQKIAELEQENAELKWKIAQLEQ

4H883-bA = molecular target: T14, 4H883-bA; assay: two-hybrid library CCNG1
T14 chain: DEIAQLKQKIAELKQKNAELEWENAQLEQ

4H918-bA = molecular target: T15, 4H918-bA; assay: two-hybrid library CCNG1
T15 chain: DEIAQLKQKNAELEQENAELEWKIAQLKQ

4H953-bA = molecular target: T16, 4H953-bA; assay: two-hybrid library CCNG1
T16 chain: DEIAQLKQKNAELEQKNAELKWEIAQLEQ

4H967-bA = molecular target: T17, 4H967-bA; assay: two-hybrid library CCNG1
T17 chain: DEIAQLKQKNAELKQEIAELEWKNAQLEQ

4H1877-AA = molecular target: T18, 4H1877-AA; assay: two-hybrid library CCmax
T18 chain: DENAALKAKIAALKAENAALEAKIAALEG

4H2109-AA = molecular target: T19, 4H2109-AA; assay: two-hybrid library CCmax; conditions: mean of both orientations
T19 chain: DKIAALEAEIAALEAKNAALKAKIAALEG

4H2162-AA = molecular target: T20, 4H2162-AA; assay: two-hybrid library CCmax; conditions: mean of both orientations
T20 chain: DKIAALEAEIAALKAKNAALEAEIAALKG

4H2253-AA = molecular target: T21, 4H2253-AA; assay: two-hybrid library CCmax; conditions: mean of both orientations
T21 chain: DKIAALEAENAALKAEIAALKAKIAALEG

4H2274-AA = molecular target: T22, 4H2274-AA; assay: two-hybrid library CCmax; conditions: mean of both orientations
T22 chain: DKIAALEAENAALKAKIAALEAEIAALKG

4H2330-AA = molecular target: T23, 4H2330-AA; assay: two-hybrid library CCmax; conditions: mean of both orientations
T23 chain: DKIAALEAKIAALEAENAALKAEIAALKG

4H2389-AA = molecular target: T24, 4H2389-AA; assay: two-hybrid library CCmax; conditions: mean of both orientations
T24 chain: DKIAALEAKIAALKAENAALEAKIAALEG

4H2438-AA = molecular target: T25, 4H2438-AA; assay: two-hybrid library CCmax; conditions: mean of both orientations
T25 chain: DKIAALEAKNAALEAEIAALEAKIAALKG

4H2473-AA = molecular target: T26, 4H2473-AA; assay: two-hybrid library CCmax; conditions: mean of both orientations
T26 chain: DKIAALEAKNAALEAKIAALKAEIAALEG

4H2649-AA = molecular target: T27, 4H2649-AA; assay: two-hybrid library CCmax; conditions: mean of both orientations
T27 chain: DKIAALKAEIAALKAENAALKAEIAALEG

4H2698-AA = molecular target: T28, 4H2698-AA; assay: two-hybrid library CCmax; conditions: mean of both orientations
T28 chain: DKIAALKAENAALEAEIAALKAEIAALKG

4H2725-AA = molecular target: T29, 4H2725-AA; assay: two-hybrid library CCmax; conditions: mean of both orientations
T29 chain: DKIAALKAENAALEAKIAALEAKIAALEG

4H2865-AA = molecular target: T30, 4H2865-AA; assay: two-hybrid library CCmax; conditions: mean of both orientations
T30 chain: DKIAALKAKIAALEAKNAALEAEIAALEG

4H3009-AA = molecular target: T31, 4H3009-AA; assay: two-hybrid library CCmax; conditions: mean of both orientations
T31 chain: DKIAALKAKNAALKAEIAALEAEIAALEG

4H3016-AA = molecular target: T32, 4H3016-AA; assay: two-hybrid library CCmax; conditions: mean of both orientations
T32 chain: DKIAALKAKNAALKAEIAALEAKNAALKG

4H310-AA = molecular target: T33, 4H310-AA; assay: two-hybrid library CCmax; conditions: mean of both orientations
T33 chain: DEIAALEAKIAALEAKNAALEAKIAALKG

4H3120-AA = molecular target: T34, 4H3120-AA; assay: two-hybrid library CCmax; conditions: mean of both orientations
T34 chain: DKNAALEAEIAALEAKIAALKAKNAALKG

4H3130-AA = molecular target: T35, 4H3130-AA; assay: two-hybrid library CCmax; conditions: mean of both orientations
T35 chain: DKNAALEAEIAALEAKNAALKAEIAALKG

4H3165-AA = molecular target: T36, 4H3165-AA; assay: two-hybrid library CCmax; conditions: mean of both orientations
T36 chain: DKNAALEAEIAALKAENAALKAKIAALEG

4H3381-AA = molecular target: T37, 4H3381-AA; assay: two-hybrid library CCmax
T37 chain: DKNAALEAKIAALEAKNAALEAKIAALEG

4H3395-AA = molecular target: T38, 4H3395-AA; assay: two-hybrid library CCmax; conditions: mean of both orientations
T38 chain: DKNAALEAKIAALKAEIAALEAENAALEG

4H3410-AA = molecular target: T39, 4H3410-AA; assay: two-hybrid library CCmax; conditions: mean of both orientations
T39 chain: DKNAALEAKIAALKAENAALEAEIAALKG

4H3590-AA = molecular target: T40, 4H3590-AA; assay: two-hybrid library CCmax; conditions: mean of both orientations
T40 chain: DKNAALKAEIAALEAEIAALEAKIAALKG

4H3697-AA = molecular target: T41, 4H3697-AA; assay: two-hybrid library CCmax; conditions: mean of both orientations
T41 chain: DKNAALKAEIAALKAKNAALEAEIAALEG

4H3753-AA = molecular target: T42, 4H3753-AA; assay: two-hybrid library CCmax; conditions: mean of both orientations
T42 chain: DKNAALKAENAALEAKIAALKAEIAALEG

4H3865-AA = molecular target: T43, 4H3865-AA; assay: two-hybrid library CCmax; conditions: mean of both orientations
T43 chain: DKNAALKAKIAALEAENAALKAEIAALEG

4H458-AA = molecular target: T44, 4H458-AA; assay: two-hybrid library CCmax; conditions: mean of both orientations
T44 chain: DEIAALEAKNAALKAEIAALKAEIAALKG

4H485-AA = molecular target: T45, 4H485-AA; assay: two-hybrid library CCmax; conditions: mean of both orientations
T45 chain: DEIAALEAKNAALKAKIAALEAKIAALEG

4H536-AA = molecular target: T46, 4H536-AA; assay: two-hybrid library CCmax; conditions: mean of both orientations
T46 chain: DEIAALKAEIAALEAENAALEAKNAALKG

4H570-AA = molecular target: T47, 4H570-AA; assay: two-hybrid library CCmax; conditions: mean of both orientations
T47 chain: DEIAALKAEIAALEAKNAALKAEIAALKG

4H629-AA = molecular target: T48, 4H629-AA; assay: two-hybrid library CCmax; conditions: mean of both orientations
T48 chain: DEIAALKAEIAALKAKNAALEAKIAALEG

4H710-AA = molecular target: T49, 4H710-AA; assay: two-hybrid library CCmax; conditions: mean of both orientations
T49 chain: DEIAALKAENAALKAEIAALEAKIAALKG

4H745-AA = molecular target: T50, 4H745-AA; assay: two-hybrid library CCmax; conditions: mean of both orientations
T50 chain: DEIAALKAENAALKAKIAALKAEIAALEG

4H797-AA = molecular target: T51, 4H797-AA; assay: two-hybrid library CCmax; conditions: mean of both orientations
T51 chain: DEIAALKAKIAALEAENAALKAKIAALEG

4H850-AA = molecular target: T52, 4H850-AA; assay: two-hybrid library CCmax; conditions: mean of both orientations
T52 chain: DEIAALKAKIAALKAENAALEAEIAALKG

4H891-AA = molecular target: T53, 4H891-AA; assay: two-hybrid library CCmax; conditions: mean of both orientations
T53 chain: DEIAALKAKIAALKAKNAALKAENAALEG

4H909-AA = molecular target: T54, 4H909-AA; assay: two-hybrid library CCmax; conditions: mean of both orientations
T54 chain: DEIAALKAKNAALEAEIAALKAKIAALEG

4H930-AA = molecular target: T55, 4H930-AA; assay: two-hybrid library CCmax; conditions: mean of both orientations
T55 chain: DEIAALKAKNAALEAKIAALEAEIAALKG

4H94-AA = molecular target: T56, 4H94-AA; assay: two-hybrid library CCmax; conditions: mean of both orientations
T56 chain: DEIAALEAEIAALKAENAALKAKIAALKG

DKNAQLEQEIAELKQKNAELEWKIAQLEQ [4H3189-bA]
interaction score (4H3189-bA): 0.465 | interaction score (4H331-bA): -1.26 | interaction score (4H3606-bA): -0.875 | interaction score (4H370-bA): -0.547 | interaction score (4H3782-bA): -0.906 | interaction score (4H3843-bA): -1.24 | interaction score (4H4001-bA): -0.765 | interaction score (4H462-bA): -1.62 | interaction score (4H568-bA): -1.19 | interaction score (4H607-bA): -1.11 | interaction score (4H687-bA): -0.444 | interaction score (4H72-bA): -1.18 | interaction score (4H797-bA): -1.42 | interaction score (4H883-bA): -1.22 | interaction score (4H918-bA): -1.44 | interaction score (4H953-bA): -1.34 | interaction score (4H967-bA): -1.1

DENAALKAKIAALKAENAALEAKIAALEG [4H1877-AA]
interaction score (4H1877-AA): 0.288 | interaction score (4H2109-AA): 1.92 | interaction score (4H2162-AA): -1.25 | interaction score (4H2253-AA): -1.17 | interaction score (4H2274-AA): -1.35 | interaction score (4H2330-AA): -1.51 | interaction score (4H2389-AA): -1.07 | interaction score (4H2438-AA): -1.24 | interaction score (4H2473-AA): -1.47 | interaction score (4H2649-AA): -0.409 | interaction score (4H2698-AA): -1.45 | interaction score (4H2725-AA): -0.897 | interaction score (4H2865-AA): -0.796 | interaction score (4H3009-AA): 1.03 | interaction score (4H3016-AA): 0.714 | interaction score (4H310-AA): -0.467 | interaction score (4H3120-AA): -1.28 | interaction score (4H3130-AA): 1.82 | interaction score (4H3165-AA): 0.715 | interaction score (4H3381-AA): -0.523 | interaction score (4H3395-AA): -1.77 | interaction score (4H3410-AA): -1.43 | interaction score (4H3590-AA): -0.565 | interaction score (4H3697-AA): -0.0749 | interaction score (4H3753-AA): -1.7 | interaction score (4H3865-AA): 0.523 | interaction score (4H458-AA): -0.933 | interaction score (4H485-AA): 0.957 | interaction score (4H536-AA): -0.101 | interaction score (4H570-AA): 1.9 | interaction score (4H629-AA): -0.167 | interaction score (4H710-AA): -0.752 | interaction score (4H745-AA): -1.08 | interaction score (4H797-AA): 0.589 | interaction score (4H850-AA): -1.25 | interaction score (4H891-AA): -1.36 | interaction score (4H909-AA): -1.84 | interaction score (4H930-AA): -1.46 | interaction score (4H94-AA): 1.3
